Data: publication PMC11372217 (Nature Communications, 2024)

Molecular target: His-PADI4 (human, UniProt Q9UM07 1-663)
Experiment: pull-down

His-PADI4, sequence (Q9UM07 whole entry): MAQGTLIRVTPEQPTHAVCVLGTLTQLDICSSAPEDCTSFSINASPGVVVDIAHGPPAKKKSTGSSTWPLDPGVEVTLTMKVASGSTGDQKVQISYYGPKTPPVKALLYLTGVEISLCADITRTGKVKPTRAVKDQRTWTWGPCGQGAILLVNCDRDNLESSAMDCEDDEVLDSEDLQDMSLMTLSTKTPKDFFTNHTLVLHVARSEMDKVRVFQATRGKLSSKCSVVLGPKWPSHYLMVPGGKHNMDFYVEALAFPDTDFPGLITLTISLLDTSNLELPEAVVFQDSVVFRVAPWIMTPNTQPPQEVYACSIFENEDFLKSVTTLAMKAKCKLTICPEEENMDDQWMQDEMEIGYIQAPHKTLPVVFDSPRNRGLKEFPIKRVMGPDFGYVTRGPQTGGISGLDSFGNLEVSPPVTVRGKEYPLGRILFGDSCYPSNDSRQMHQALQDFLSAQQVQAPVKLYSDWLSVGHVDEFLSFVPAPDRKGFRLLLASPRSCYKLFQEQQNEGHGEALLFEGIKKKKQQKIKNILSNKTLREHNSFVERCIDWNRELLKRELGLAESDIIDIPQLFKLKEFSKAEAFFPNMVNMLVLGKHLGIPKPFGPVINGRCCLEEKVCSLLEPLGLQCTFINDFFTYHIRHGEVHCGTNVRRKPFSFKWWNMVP

B1: GST-HIF-1α (575-786) (domain or fragment, human, UniProt Q16665 575-786, looked up)
chain: RSFDQLSPLESSSASPESASPQSTVTVFQQTQIQEPTANATTTTATTDELKTVTKDRMEDIKILIASPSPTHIHKETTSATSSPYRDTQSRTASPNRAGKGVIEQTEKSHPRSPNVLSVALSQRTTVPEEELNPKILALQNAQRKRKMEHDGSLFQAVGIGTLLQQPDDHAATTSLSWKRVKGCKSSEQNGMEQKTIILIPSDLACRLLGQS
Does B1 bind?
Result: binds
